Sequences and labels used below:
T1: human IL-23 (human, UniProt Q9NPF7 20-189; P29460 23-328)
T1 construct: Bought recombinant heterodimeric cytokine (eBioscience 34-8239-85 for panning; R&D Systems for the splenocyte assay); also called hIL-23; hIL23
T1 sequence (looked up) 1: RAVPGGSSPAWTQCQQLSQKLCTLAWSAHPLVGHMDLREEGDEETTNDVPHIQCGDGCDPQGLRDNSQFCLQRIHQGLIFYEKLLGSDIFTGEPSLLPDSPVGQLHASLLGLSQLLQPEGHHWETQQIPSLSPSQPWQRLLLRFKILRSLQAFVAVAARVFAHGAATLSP
T1 sequence (looked up) 2: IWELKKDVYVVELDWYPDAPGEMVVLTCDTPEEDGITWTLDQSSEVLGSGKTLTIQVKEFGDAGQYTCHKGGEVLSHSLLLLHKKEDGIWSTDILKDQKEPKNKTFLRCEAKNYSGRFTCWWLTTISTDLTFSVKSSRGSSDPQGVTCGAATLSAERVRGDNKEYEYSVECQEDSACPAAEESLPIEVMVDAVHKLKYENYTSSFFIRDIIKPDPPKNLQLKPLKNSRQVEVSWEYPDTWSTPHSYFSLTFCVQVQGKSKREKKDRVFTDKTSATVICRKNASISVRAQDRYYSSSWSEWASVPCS

B1: Cl59m (designed binder)
chain: MSIQQIQKEIAQIQEVIAGIQKWIYMMTGGSGGGSGGGSGGGSGMSIEEIQKQIAAIQKQIAAIQKQIYAMTGGSGGGSGGGSGGGSGMSIEEIQKQITAIKEQIIAIYKQIMAMTP
notes: Rationally designed (in silico matured) variant of Cl59; also called C159m
B2: Cl59 (designed binder)
chain: MSIEEIQKQIASIQEVIAGIQKWIYMMTGGSGGSGGMSIEEIQKQIAAIQKQIAAIQKQIYAMTGGSGGGGSGMSIEEIQKQITAIKEQIIAIYKQIMAMTP
notes: Non-matured Alphabody from the AC11 library, tested as soluble recombinant protein; also called Clone 59; C159
B3: MA5 (designed binder)
chain: MSIKQIQKEIAQIQEVIAAIQKWIYRMTGGSGGSGGMSIEEIQKQIAAIQCQIAAIQKQIYAMTGSGGGGSGGSGGGGSGMSIEEIQKQIAAIQDQIVAIYKQIMAMSS
B4: MB9 (designed binder)
chain: B3 chain with K4Q, A11T, Q12N, R26T, D95N, V98L, S108G
B5: 59m_C2eQ (designed binder)
single chain Alphabody: B1 chain with G34S, S35G, G42S, S43G, K59C, G74S, S75G, G82S, S83G, K102Q
notes: also called design variant; polypeptide 19
B6: 59m_A3cA_A4cS_C2eQ (designed binder)
single chain Alphabody: MSIQQIQKEIAQIQEVIAAIQKWIYSMTGGSGGSGGGGSGGSGGMSIEEIQKQIAAIQCQIAAIQKQIYAMTGSGGGGSGGSGGGGSGMSIEEIQKQITAIQEQIIAIYKQIMAMTP
notes: also called design variant; polypeptide 20
B7: MB23 (designed binder)
chain: MSIEQIQKEITTIQEVIAAIQKYIYTMTGGSGGSGGMSIEEIQKQIAAIQCQIAAIQKQIYAMTGSGGGGSGMSIEEIQKQIAAIQEQIVAIYKQIMAMAS
notes: 3 for clone 59 (conflict); also called non-PEGylated MB23 Alphabody
B8: MA14 (designed binder)
chain: B7 chain with K8T, T11A, T12S, A19G, T26S, E87N, A100G, S101G
B9: MA23 (designed binder)
chain: B7 chain with E4Q, T11A, T12N, Y23W, T26L, A100P
B10: MB76 (designed binder)
chain: B7 chain with E4Q, T12Q, T26R, G35D, E87G, V90L, A100S, S101L
B11: MB38 (designed binder)
chain: B7 chain with E4Q, Q5E, T11K, T12Q, A19G, T26G, E87N, V90L, A100P, S101Q
B12: MB64 (designed binder)
chain: MSIQQIQKEITQIQAVIAGIQKYIYRMTGGSGGSGGGGSGGSGGMSIEEIQKQIAAIQCQIAAIQKQIYAMTGSGGGGSGMSIEEIQKQIAAIQGQIVAIYKQIMAMAT
B13: MA9 (designed binder)
chain: B12 chain with Q12T, G19A, Y23W, R26T, V98I, A108K, T109D
B14: MA15 (designed binder)
chain: B12 chain with Q5E, T11A, Q12N, R26T, A91T, G95A, V98I, A108P, T109R
B15: MB74 (designed binder)
chain: B12 chain with T11A, Q12T, A15E, V98L, T109I
B16: MAcons (designed binder)
single chain Alphabody: B12 chain with T11A, A15E, G19A, Y23W, R26S, G95D, A108S, T109G
notes: also called polypeptide 15
B17: MB67 (designed binder)
chain: B3 chain with K4Q, Q5K, A11T, Q12N, W23Y, R26T, D95R, V98L, S109T
B18: MB43 (designed binder)
chain: B3 chain with K4E, Q5E, A11K, Q12N, W23Y, R26T, Q87P, V98I, S108T, S109R
B19: MB23-PEG (designed binder)
chain: B7 chain
modifications: 40 kDa activated maleimide PEG conjugated to the single free thiol group (Cys) of MB23

Where a chain is given by its changes, count along the chain named.

In general, Kd refers to the concentration at which binding is half-saturated. Low readings indicate tighter binding, high ones weaker binding. What is called koff is the rate constant with which the complex falls apart. Low readings indicate a long-lived complex, high ones a short-lived complex. A word on the kon: it is a measure of how fast the partners come together. The low end stands for slower complex formation, the high end for faster complex formation.

One experiment concerns the target T1, human IL-23. Briefly: ELISA. (In general: ELISA stands for enzyme-linked immunosorbent assay.)
In turn, B1 showed a Kd of 0.3 nM.

In a further experiment the target is T1, human IL-23. As to the kind of experiment: equilibrium ELISA, soluble polypeptide; equilibrium ELISA.
As for B2, binding was put at a Kd of 3.8 nM.

For the next experiment, the target named is T1, human IL-23. As to the kind of experiment: standard equilibrium ELISA.
As for B3, the “factor better than the non-matured variant C159” value came to 38 fold.

The target of a further experiment is T1, human IL-23. As to the kind of experiment: cell-based or functional assay.
For B4, the “functional KD (DB fKD), DB cell assay: Stat3 phosphorylation induced by human IL-23; n data = 2” value (“functional KD (DB fKD), DB cell assay” below) was 0.7 nM.

As for B3, the “functional KD (DB fKD), DB cell assay” value was found to be 0.45 nM and the “functional KD (Spleno fKD), mouse splenocyte assay: IL-17 production induced by human IL-23; n data = 3” value (“functional KD (Spleno fKD) … n data = 3” for short) stood at 1.15 nM.

Consider B2, for which the “functional KD (Spleno fKD) … n data = 3” value was determined as 68.8 nM.

In the case of B5, the “functional KD (Spleno fKD), mouse splenocyte assay: IL-17 production induced by human IL-23; n data = 1” value (from here on “functional KD (Spleno fKD) … n data = 1”) turned out to be 1.9 nM.

Consider B1, for which the “functional KD (DB fKD), DB cell assay” value worked out at 1.73 nM and the “functional KD (Spleno fKD), mouse splenocyte assay: IL-17 production induced by human IL-23; n data = 5” value was 21.7 nM.

As for B6, the “functional KD (Spleno fKD) … n data = 1” value was 0.7 nM.

For the molecule B7, the “functional KD (DB fKD), DB cell assay” value stood at 0.16 nM.

Take B8: the “functional KD (Spleno fKD) … n data = 1” value was 11 nM.

B9: the “functional KD (Spleno fKD) … n data = 1” value was 10 nM.

For the molecule B10, the “functional KD (Spleno fKD) … n data = 1” value was found to be 1.7 nM.

With B11, the “functional KD (Spleno fKD) … n data = 3” value stood at 1.01 nM.

Take B12: the “functional KD (DB fKD), DB cell assay” value turned out to be 0.46 nM and the “functional KD (Spleno fKD), mouse splenocyte assay: IL-17 production induced by human IL-23; n data = 5” value turned out to be 0.18 nM.

On to B13, for which the “functional KD (DB fKD), DB cell assay” value worked out at 0.24 nM and the “functional KD (Spleno fKD) … n data = 3” value is 0.46 nM.

As for B14, the “functional KD (DB fKD), DB cell assay” value is 0.29 nM and the “functional KD (Spleno fKD) … n data = 3” value came to 0.48 nM.

In the case of B15, the “functional KD (Spleno fKD) … n data = 1” value turned out to be 0.9 nM.

As for B16, the “functional KD (Spleno fKD) … n data = 1” value came out at 4.1 nM.

Another experiment deals with T1, human IL-23. Briefly: equilibrium ELISA, soluble polypeptide.
The molecule B4 returned a Kd of 0.27 nM.

As for B17, the Kd came to 0.25 nM.

B18 showed a Kd of 0.2 nM. The Kd values of the last two molecules are within 1.5-fold of each other.

In turn, B3 yielded a Kd of 0.1 nM. This Kd is about 2-fold lower than that of the molecule before.

In turn, B5 registered a Kd of 0.93 nM. Compared with the last molecule, the Kd is about 9.3-fold higher.

Regarding B6, the affinity, expressed as Kd, was 0.39 nM.

In turn, B7 showed a Kd of 0.17 nM.

B8 returned a Kd of 1.8 nM. Against the preceding molecule, the Kd is about 11-fold higher.

As for B9, the Kd is 0.29 nM.

Molecule B10 had a Kd of 1.83 nM.

B11 showed a Kd of 0.2 nM. Against the preceding molecule, the Kd is about 9.2-fold lower.

Turning to B12, the Kd amounted to 0.21 nM.

B13: the affinity, expressed as Kd, was 0.17 nM.

In turn, B14 returned a Kd of 0.31 nM.

In the case of B15, the affinity, expressed as Kd, was 0.35 nM.

Regarding B16, binding was put at a Kd of 0.23 nM.

Another experiment addresses T1, human IL-23. As to the kind of experiment: kinetic ELISA, soluble polypeptide; kinetic ELISA.
B2 registered a dissociation constant Kd of 7 nM.

The next experiment deals with T1, human IL-23. As to the kind of experiment: kinetic ELISA, soluble polypeptide.
Turning to B4, the Kd is 0.13 nM, the koff is 0.00025 s⁻¹ and the kon was determined as 1.9e+06 M⁻¹ s⁻¹.

Regarding B17, the affinity, expressed as Kd, was 0.14 nM; the koff stood at 0.00022 s⁻¹; the on-rate (kon) was found to be 1.6e+06 M⁻¹ s⁻¹.

In turn, B18 showed a Kd of 0.11 nM, a koff of 0.00014 s⁻¹ and a kon of 1.3e+06 M⁻¹ s⁻¹.

As to B3, the Kd amounted to 0.03 nM, the koff is 0.00016 s⁻¹ and the kon stood at 4.5e+06 M⁻¹ s⁻¹.

Consider B2, for which the koff is 0.0007 s⁻¹ and the kon worked out at 100000 M⁻¹ s⁻¹.

Consider B5, for which the Kd was determined as 3.9 nM, the koff turned out to be 0.00043 s⁻¹ and the kon turned out to be 110000 M⁻¹ s⁻¹.

With B6, binding was put at a Kd of 0.75 nM, the koff turned out to be 0.00026 s⁻¹ and the kon came out at 350000 M⁻¹ s⁻¹.

As for B7, the Kd turned out to be 0.15 nM, the koff is 0.00021 s⁻¹ and the kon is 1.5e+06 M⁻¹ s⁻¹.

In turn, B8 came in with a Kd of 2.5 nM, a koff of 0.0005 s⁻¹ and a kon of 200000 M⁻¹ s⁻¹.

With B9, the Kd was determined as 0.7 nM, the koff was determined as 0.00032 s⁻¹ and the kon was found to be 450000 M⁻¹ s⁻¹.

In the case of B10, the Kd amounted to 2.3 nM, the koff is 0.00056 s⁻¹ and the kon worked out at 250000 M⁻¹ s⁻¹.

B11: binding was characterised by a dissociation constant (Kd) of 0.21 nM, the koff came out at 0.00022 s⁻¹ and the association rate constant (kon) was 1e+06 M⁻¹ s⁻¹.

For B12, the Kd stood at 0.3 nM, the koff worked out at 0.00033 s⁻¹ and the kon was 1.1e+06 M⁻¹ s⁻¹.

For the molecule B13, the Kd stood at 0.25 nM, the koff was 0.00035 s⁻¹ and the kon came out at 1.4e+06 M⁻¹ s⁻¹.

As to B14, the affinity, expressed as Kd, was 0.09 nM; the koff was found to be 7.2e-05 s⁻¹; the kon amounted to 800000 M⁻¹ s⁻¹.

With B15, the Kd was 0.25 nM, the koff was 0.00016 s⁻¹ and the kon was 650000 M⁻¹ s⁻¹.

In turn, B16 returned a Kd of 0.13 nM, a koff of 0.00032 s⁻¹ and a kon of 2.5e+06 M⁻¹ s⁻¹.

A further experiment addresses T1, human IL-23. As to the kind of experiment: cell-based or functional assay. This is another data set of the same source.
Take B19: the “IC50 (read off the curve), inhibition of Stat3 phosphorylation in DB cells by MB23-PEG pre-incubated with 35 pM hIL23” value was approximately 1 nM.

Another experiment concerns the target T1, human IL-23. As to the kind of experiment: phage-coated ELISA, clone displayed on phage.
Take B4: the Kd is 0.2 nM. This lies in the sub-nanomolar range.

B17 came in with a Kd of 0.21 nM.

For B18, the Kd was found to be 0.18 nM.

Take B3: binding was characterised by a dissociation constant (Kd) of 0.2 nM.

B2 displayed a Kd of 3 nM.

For the molecule B7, the dissociation constant (Kd) was 0.07 nM.

For B8, the Kd was determined as 1.5 nM.

For B9, the affinity, expressed as Kd, was 0.7 nM.

The molecule B10 returned a Kd of 0.16 nM.

As to B11, the Kd was 0.18 nM.

B12 displayed a Kd of 0.09 nM.

Molecule B13 returned a Kd of 0.2 nM.

As for B14, binding was characterised by a dissociation constant (Kd) of 0.12 nM. Compared with the last molecule, the Kd is about 1.7-fold lower.

For B15, the Kd is 0.47 nM.

The values are drawn from patent US20150266925A1 (COMPLIX, published 2015).
